In patent US20240123070A1 (published 2024):

T1: KRAS G13D (G13D-RT6) peptide on HLA-DQA1*05:01 / HLA-DQB1*03:01 (human)
T1 peptide: YKLVVVGAGDVGKSAL


Target: T1, KRAS G13D (G13D-RT6) peptide on …
Experiment: NFAT-luciferase; Jurkat-NFAT-Luc with the TCR and Lovo-DPA0301:DPB0501 cells loaded with G13D-RT6; against wild-type B8.2.4 TCR; full-length, on cells
Description: The TCR mutant (having a mutation present in CDR3 region) lentiviral vector was transduced into Jurkat-NFAT-Luc cell line, […] (G13D-RT6, SEQ ID NO: 20) were used as antigen-presenting cells (referred to as APCs), 2×10⁴ of the TCR-T and 2×10⁴ of the antigen-loaded APCs were co-cultured for 16-24 hours, added with ONE Glo Luciferase to detect the fluorescent signal expression, then TCR Mut RLU/WT RLU (ratio of RLU signal value of TCR mutant to RLU signal value of wild-type B8.2.4TCR) was calculated, and the results were shown in Table 9.

Binder	TCR Mut RLU/WT RLU [ratio]
B8.2.4 TCR mutant α97R-A (TCR, V domains shown) Valpha: AQKITQTQPGMFVQEKEAVTLDCTYDTSDPSYGLFWYKQPSSGEMIFLIYQGSYDQQNATEGRYSLNFQKARKSANLVISASQLGDSAMYFCAMREATGTASKLTFGTGTRLQVTL Vbeta: DVKVTQSSRYLVKRTGEKVFLECVQDMDHENMFWYRQDPGLGLRLIYFSYDVKMKEKGDIPEGYSVSREKKERFSLILESASTNQTSMYLCASSQTVPPQHFGDGTRLSIL	0.13
B8.2.4 TCR mutant α97R-K (TCR, V domains shown) Valpha: AQKITQTQPGMFVQEKEAVTLDCTYDTSDPSYGLFWYKQPSSGEMIFLIYQGSYDQQNATEGRYSLNFQKARKSANLVISASQLGDSAMYFCAMREKTGTASKLTFGTGTRLQVTL Vbeta: DVKVTQSSRYLVKRTGEKVFLECVQDMDHENMFWYRQDPGLGLRLIYFSYDVKMKEKGDIPEGYSVSREKKERFSLILESASTNQTSMYLCASSQTVPPQHFGDGTRLSIL	0.24
B8.2.4 TCR mutant α97R-H (TCR, V domains shown) Valpha: AQKITQTQPGMFVQEKEAVTLDCTYDTSDPSYGLFWYKQPSSGEMIFLIYQGSYDQQNATEGRYSLNFQKARKSANLVISASQLGDSAMYFCAMREHTGTASKLTFGTGTRLQVTL Vbeta: DVKVTQSSRYLVKRTGEKVFLECVQDMDHENMFWYRQDPGLGLRLIYFSYDVKMKEKGDIPEGYSVSREKKERFSLILESASTNQTSMYLCASSQTVPPQHFGDGTRLSIL	0.13
B8.2.4 TCR mutant α97R-D (TCR, V domains shown) Valpha: AQKITQTQPGMFVQEKEAVTLDCTYDTSDPSYGLFWYKQPSSGEMIFLIYQGSYDQQNATEGRYSLNFQKARKSANLVISASQLGDSAMYFCAMREDTGTASKLTFGTGTRLQVTL Vbeta: DVKVTQSSRYLVKRTGEKVFLECVQDMDHENMFWYRQDPGLGLRLIYFSYDVKMKEKGDIPEGYSVSREKKERFSLILESASTNQTSMYLCASSQTVPPQHFGDGTRLSIL	0.17
B8.2.4 TCR mutant α97R-E (TCR, V domains shown) Valpha: AQKITQTQPGMFVQEKEAVTLDCTYDTSDPSYGLFWYKQPSSGEMIFLIYQGSYDQQNATEGRYSLNFQKARKSANLVISASQLGDSAMYFCAMREETGTASKLTFGTGTRLQVTL Vbeta: DVKVTQSSRYLVKRTGEKVFLECVQDMDHENMFWYRQDPGLGLRLIYFSYDVKMKEKGDIPEGYSVSREKKERFSLILESASTNQTSMYLCASSQTVPPQHFGDGTRLSIL	0.16
B8.2.4 TCR mutant α97R-I (TCR, V domains shown) Valpha: AQKITQTQPGMFVQEKEAVTLDCTYDTSDPSYGLFWYKQPSSGEMIFLIYQGSYDQQNATEGRYSLNFQKARKSANLVISASQLGDSAMYFCAMREITGTASKLTFGTGTRLQVTL Vbeta: DVKVTQSSRYLVKRTGEKVFLECVQDMDHENMFWYRQDPGLGLRLIYFSYDVKMKEKGDIPEGYSVSREKKERFSLILESASTNQTSMYLCASSQTVPPQHFGDGTRLSIL	0.16
B8.2.4 TCR mutant α97R-C (TCR, V domains shown) Valpha: AQKITQTQPGMFVQEKEAVTLDCTYDTSDPSYGLFWYKQPSSGEMIFLIYQGSYDQQNATEGRYSLNFQKARKSANLVISASQLGDSAMYFCAMRECTGTASKLTFGTGTRLQVTL Vbeta: DVKVTQSSRYLVKRTGEKVFLECVQDMDHENMFWYRQDPGLGLRLIYFSYDVKMKEKGDIPEGYSVSREKKERFSLILESASTNQTSMYLCASSQTVPPQHFGDGTRLSIL	0.27

Now from value to binder:

TCR Mut RLU/WT RLU [ratio]	Binder
0.23	B8.2.4 TCR mutant α97R-T (TCR, V domains shown) Valpha: AQKITQTQPGMFVQEKEAVTLDCTYDTSDPSYGLFWYKQPSSGEMIFLIYQGSYDQQNATEGRYSLNFQKARKSANLVISASQLGDSAMYFCAMRETTGTASKLTFGTGTRLQVTL Vbeta: DVKVTQSSRYLVKRTGEKVFLECVQDMDHENMFWYRQDPGLGLRLIYFSYDVKMKEKGDIPEGYSVSREKKERFSLILESASTNQTSMYLCASSQTVPPQHFGDGTRLSIL
0.22	B8.2.4 TCR mutant α97R-S (TCR, V domains shown) Valpha: AQKITQTQPGMFVQEKEAVTLDCTYDTSDPSYGLFWYKQPSSGEMIFLIYQGSYDQQNATEGRYSLNFQKARKSANLVISASQLGDSAMYFCAMRESTGTASKLTFGTGTRLQVTL Vbeta: DVKVTQSSRYLVKRTGEKVFLECVQDMDHENMFWYRQDPGLGLRLIYFSYDVKMKEKGDIPEGYSVSREKKERFSLILESASTNQTSMYLCASSQTVPPQHFGDGTRLSIL
0.16	B8.2.4 TCR mutant α97R-V (TCR, V domains shown) Valpha: AQKITQTQPGMFVQEKEAVTLDCTYDTSDPSYGLFWYKQPSSGEMIFLIYQGSYDQQNATEGRYSLNFQKARKSANLVISASQLGDSAMYFCAMREVTGTASKLTFGTGTRLQVTL Vbeta: DVKVTQSSRYLVKRTGEKVFLECVQDMDHENMFWYRQDPGLGLRLIYFSYDVKMKEKGDIPEGYSVSREKKERFSLILESASTNQTSMYLCASSQTVPPQHFGDGTRLSIL
0.16	B8.2.4 TCR mutant α97R-Y (TCR, V domains shown) Valpha: AQKITQTQPGMFVQEKEAVTLDCTYDTSDPSYGLFWYKQPSSGEMIFLIYQGSYDQQNATEGRYSLNFQKARKSANLVISASQLGDSAMYFCAMREYTGTASKLTFGTGTRLQVTL Vbeta: DVKVTQSSRYLVKRTGEKVFLECVQDMDHENMFWYRQDPGLGLRLIYFSYDVKMKEKGDIPEGYSVSREKKERFSLILESASTNQTSMYLCASSQTVPPQHFGDGTRLSIL
0.17	B8.2.4 TCR mutant α97R-M (TCR, V domains shown) Valpha: AQKITQTQPGMFVQEKEAVTLDCTYDTSDPSYGLFWYKQPSSGEMIFLIYQGSYDQQNATEGRYSLNFQKARKSANLVISASQLGDSAMYFCAMREMTGTASKLTFGTGTRLQVTL Vbeta: DVKVTQSSRYLVKRTGEKVFLECVQDMDHENMFWYRQDPGLGLRLIYFSYDVKMKEKGDIPEGYSVSREKKERFSLILESASTNQTSMYLCASSQTVPPQHFGDGTRLSIL
0.18	B8.2.4 TCR mutant α97R-W (TCR, V domains shown) Valpha: AQKITQTQPGMFVQEKEAVTLDCTYDTSDPSYGLFWYKQPSSGEMIFLIYQGSYDQQNATEGRYSLNFQKARKSANLVISASQLGDSAMYFCAMREWTGTASKLTFGTGTRLQVTL Vbeta: DVKVTQSSRYLVKRTGEKVFLECVQDMDHENMFWYRQDPGLGLRLIYFSYDVKMKEKGDIPEGYSVSREKKERFSLILESASTNQTSMYLCASSQTVPPQHFGDGTRLSIL
0.16	B8.2.4 TCR mutant α97R-Q (TCR, V domains shown) Valpha: AQKITQTQPGMFVQEKEAVTLDCTYDTSDPSYGLFWYKQPSSGEMIFLIYQGSYDQQNATEGRYSLNFQKARKSANLVISASQLGDSAMYFCAMREQTGTASKLTFGTGTRLQVTL Vbeta: DVKVTQSSRYLVKRTGEKVFLECVQDMDHENMFWYRQDPGLGLRLIYFSYDVKMKEKGDIPEGYSVSREKKERFSLILESASTNQTSMYLCASSQTVPPQHFGDGTRLSIL
0.16	B8.2.4 TCR mutant α97R-N (TCR, V domains shown) Valpha: AQKITQTQPGMFVQEKEAVTLDCTYDTSDPSYGLFWYKQPSSGEMIFLIYQGSYDQQNATEGRYSLNFQKARKSANLVISASQLGDSAMYFCAMRENTGTASKLTFGTGTRLQVTL Vbeta: DVKVTQSSRYLVKRTGEKVFLECVQDMDHENMFWYRQDPGLGLRLIYFSYDVKMKEKGDIPEGYSVSREKKERFSLILESASTNQTSMYLCASSQTVPPQHFGDGTRLSIL
